Where two headings read alike, the source gives them in different places.

Our source for the percent of parent values is PMC6874086.

Assay [1] deals with VPS4A/B (UniProt Q9UN37). To be noted: parent: est. 100; read off a plot.
In assay [2] the target is VPS4A/B (UniProt Q9UN37). Conditions: parent: est. 100; read off a plot. The source holds these as a separate data set.

UniProt Q9UN37, sequence (Q9UN37 whole entry): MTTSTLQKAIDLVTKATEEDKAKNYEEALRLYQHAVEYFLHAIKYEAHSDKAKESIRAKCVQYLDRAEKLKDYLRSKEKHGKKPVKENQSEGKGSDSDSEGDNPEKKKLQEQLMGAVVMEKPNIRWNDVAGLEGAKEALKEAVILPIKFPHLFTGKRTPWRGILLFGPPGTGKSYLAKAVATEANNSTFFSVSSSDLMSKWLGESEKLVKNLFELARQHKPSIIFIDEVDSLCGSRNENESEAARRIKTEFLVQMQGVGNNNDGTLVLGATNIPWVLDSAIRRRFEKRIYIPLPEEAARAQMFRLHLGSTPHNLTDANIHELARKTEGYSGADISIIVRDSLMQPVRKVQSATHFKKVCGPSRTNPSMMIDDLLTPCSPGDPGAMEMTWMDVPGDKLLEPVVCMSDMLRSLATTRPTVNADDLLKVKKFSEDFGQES

In the case of “LCMV Z WT with a C-terminal streptavidin binding peptide (SBP) tag (from UniProt P18541) K5R; K10R; K33R; K38R; K69R; K77R”, the values for the percent of parent with VPS4A/B [1] and in the assay with VPS4A/B [2] were 23 % of WT and 24 % of WT, respectively.
